Source: paper PMC9304066, “H2S biogenesis by cystathionine beta-synthase: mechanism of inhibition by aminooxyacetic acid and unexpected role of serine” (Cellular and Molecular Life Sciences: CMLS, 2022)

Experiments:
Type in all cases: biochemical, Saccharomyces cerevisiae
[1] = substrate: N[C@@H](CS)C(=O)O; experiment: CBS H2S production assay (AzMC fluorometric), tScCBS; conditions: other: tScCBS, Cys + Hcy, pH 8.6, 37.0 °C
Description: CBS H2S production assay. H2S-producing activity of CBS, utilizing Cys and Hcy, was determined using a fluorometric assay employing the H2S-selective fluorescent probe 7-azido-4-methylcoumarin (AzMC) as described previously. The reaction mixture in a total volume of 200 µL contained 50 mM Tris–HCl pH 8.6, 5 μM PLP, 2 mM Hcy, 10 μM AzMC and 500 ng tScCBS or HsCBS. The plate was incubated for 10 min at 37°C and the enzymatic activity was triggered by adding 0–50 mM Cys. The fluorescence of the mixtures at 450 nm (excited at 365 nm) was followed for 2 h at 37°C. All measurements were performed in triplicates using Tecan Infinite 200 PRO microplate reader. Kinetic data were analyzed using GraphPad Prism software.

[2] = substrate: N[C@@H](CS)C(=O)O; experiment: CBL-LDH coupled-coupled CBS assay, tScCBS; conditions: other: tScCBS, substrate varied with 2 mM Hcy, pH 8.9
Description: (§1) CBS coupled-coupled assay. CBS canonical activity utilizing Ser and Hcy was determined using cystathionine beta-lyase (CBL) and lactate-dehydrogenase (LDH) coupled-coupled assay as described previously with a few modifications. Native L-LDH from rabbit muscle was purchased from Sigma (catalog no. L2500) and recombinant CBL was purchased from Creative Enzymes (catalog no. NATE-1146). In a final volume of 150 µL, the reaction mixture contained 50 mM Tris–HCl pH 8.9, 20 µM PLP, 500 µM NADH, 1.3 µM LDH, 0.1 µM CBL, 0–20 mM Ser (or 0–50 mM Cys) and 500 ng of tScCBS or HsCBS. Assays with HsCBS were carried out in the absence or presence of 500 µM CBS allosteric activator S-adenosylmethionine (SAM). The reaction was triggered by the addition of 2 mM Hcy and the oxidation of NADH to NAD^+ was followed by monitoring the decrease in absorbance at 340 nm over time (ε340 = 6220 M^−1.cm^−1). […] All measurements were performed in triplicates using Tecan Infinite 200 PRO microplate reader. Kinetic data were analyzed using GraphPad Prism software.

[3] = substrate: N[C@@H](CO)C(=O)O; experiment: CBL-LDH coupled-coupled CBS assay, tScCBS; conditions: other: tScCBS, substrate varied with 2 mM Hcy, pH 8.9
Description: as §1

B1: tScCBS (Saccharomyces cerevisiae S288C) (protein)
chain: MTKSEQQADSRHNVIDLVGNTPLIALKKLPKALGIKPQIYAKLELYNPGGSIKDRIAKSMVEEAEASGRIHPSRSTLIEPTSGNTGIGLALIGAIKGYRTIITLPEKMSNEKVSVLKALGAEIIRTPTAAAWDSPESHIGVAKKLEKEIPGAVILDQYNNMMNPEAHYFGTGREIQRQLEDLNLFDNLRAVVAGAGTGGTISGISKYLKEQNDKIQIVGADPFGSILAQPENLNKTDITDYKVEGIGYDFVPQVLDRKLIDVWYKTDDKPSFKYARQLISNEGVLVGGSSGSAFTAVVKYCEDHPELTEDDVIVAIFPDSIRSYLTKFVDDEWLKKNNLWDDDVL
notes: 6xHis (C); made in house
Protein B1 has a Km [1] of 6.7 ± 1.5 mM, a kcat [1] of 3.4 ± 0.3 s⁻¹ and a kcat/Km [1] of 510 M⁻¹ s⁻¹. For the same protein, the Km [2] was 2.5 ± 0.2 mM, the kcat [2] was 1.7 ± 0.1 s⁻¹ and the kcat/Km [2] was 690 M⁻¹ s⁻¹. For the same protein, the Km [3] was 2.0 ± 0.4 mM, the Vmax [3] was 4.18 µmol/min/mg and the kcat [3] was 2.7 ± 0.1 s⁻¹. It also gave a kcat/Km [3] of 1340 M⁻¹ s⁻¹.
